{"source": "the MegaScale stability set (Tsuboyama et al. 2023)", "parents": {"B1": {"name": "6YSE (parent)", "chain": "HERALMVNRLQKLTRMLRVHPDPKWKQEQQELIKRLK"}}, "data": [{"variants_of": "B1", "assay": "folding stability dG (cDNA display proteolysis); higher = more stable", "conditions": "PBS, room temperature", "units": {"folding stability dG": "kcal/mol"}, "values": [{"variant": "HERALMVNRLQKLTRMLRVHPLPKWKQEQQELIKRLK", "folding stability dG": 1.22}, {"variant": "HERALMVNRLQKLTRMLRVHPMPKWKQEQQELIKRLK", "folding stability dG": 0.675}, {"variant": "HERALMVNRLQKLTRMLRVHPFPKWKQEQQELIKRLK", "folding stability dG": 1.07}, {"variant": "HERALMVNRLQKLTRMLRNHPDPKWKQEQQELIKRLK", "folding stability dG": 1.44}, {"variant": "HERALMVNRLQKLTRMLRQHPDPKWKQEQQELIKRLK", "folding stability dG": 1.41}, {"variant": "HERALMVNRLQKLTRMLRFHPDPKWKQEQQELIKRLK", "folding stability dG": 1.51}, {"variant": "HERALMVNRLQKLTRMLRDHPDPKWKQEQQELIKRLK", "folding stability dG": 1.13}, {"variant": "HERALMVNRLQKLTRMLRHHPDPKWKQEQQELIKRLK", "folding stability dG": 1.38}, {"variant": "HERALMVNRLQKLTRMLRYHPDPKWKQEQQELIKRLK", "folding stability dG": 1.57}, {"variant": "HERALMVNRLQKLTRMLRSHPDPKWKQEQQELIKRLK", "folding stability dG": 1.23}, {"variant": "HERALMVNRLQKLTRMLRAHPDPKWKQEQQELIKRLK", "folding stability dG": 1.21}, {"variant": "HERALMVNRLQWLTRMLRVHPDPKWKQEQQELIKRLK", "folding stability dG": 2.78}, {"variant": "HERALMVNRLQKITRMLRVHPDPKWKQEQQELIKRLK", "folding stability dG": 1.07}, {"variant": "HERMLMVNRLQKLTRMLRVHPDPKWKQEQQELIKRLK", "folding stability dG": 1.66}, {"variant": "HERWLMVNRLQKLTRMLRVHPDPKWKQEQQELIKRLK", "folding stability dG": 1.7}, {"variant": "HERHLMVNRLQKLTRMLRVHPDPKWKQEQQELIKRLK", "folding stability dG": 1.35}, {"variant": "HERKLMVNRLQKLTRMLRVHPDPKWKQEQQELIKRLK", "folding stability dG": 1.68}, {"variant": "HERLLMVNRLQKLTRMLRVHPDPKWKQEQQELIKRLK", "folding stability dG": 1.49}, {"variant": "HERALMVNRFQKLTRMLRVHPDPKWKQEQQELIKRLK", "folding stability dG": -0.248}, {"variant": "HERALMVNRVQKLTRMLRVHPDPKWKQEQQELIKRLK", "folding stability dG": 0.163}, {"variant": "HERALMVNRLQKLTRMLRVHPDPKLKQEQQELIKRLK", "folding stability dG": 1.97}, {"variant": "HERALMVNRLQKLTRMLRVHPDPKMKQEQQELIKRLK", "folding stability dG": 1.71}, {"variant": "HERALMVNRLQKLHRMLRVHPDPKWKQEQQELIKRLK", "folding stability dG": 0.917}, {"variant": "HERALMVNRLQKLRRMLRVHPDPKWKQEQQELIKRLK", "folding stability dG": 1.3}, {"variant": "HERALMVNRLQKLFRMLRVHPDPKWKQEQQELIKRLK", "folding stability dG": 0.771}, {"variant": "HERALMVNRLQKLTRMLRVHPDPWWKQEQQELIKRLK", "folding stability dG": 0.63}, {"variant": "HERALMVNRLQKLTRMLRVHPDPMWKQEQQELIKRLK", "folding stability dG": 1.09}, {"variant": "HERALMVNRLQKLTRMLRVHPDPDWKQEQQELIKRLK", "folding stability dG": 0.986}, {"variant": "HERALMVNRLQKLTRMLRVHPDPLWKQEQQELIKRLK", "folding stability dG": 1.11}, {"variant": "HERALMVNRLQKLTRMLRVHPDPEWKQEQQELIKRLK", "folding stability dG": 1.01}, {"variant": "HERALMVNRLQKLTRMLRVHPDPYWKQEQQELIKRLK", "folding stability dG": 1.13}, {"variant": "HERALMVNRLQKLTRMLRVHPDPNWKQEQQELIKRLK", "folding stability dG": 0.982}, {"variant": "HERALMVNRLQKLTRMLRVHPDPKWKQEQQELIKRIK", "folding stability dG": 0.873}, {"variant": "HERALMVNRLQKLTRMLRVHPDPKWKQEQQELIKRRK", "folding stability dG": -0.888}, {"variant": "HERALMVNRLQKLTRMLRVHPDPKWKQEQQELIMRLK", "folding stability dG": 1.34}, {"variant": "HERALMVNRLQKLTRMLRVHPDPKWKQEQQELITRLK", "folding stability dG": 1.27}, {"variant": "HERALMVNRLQKLTRMLRVHPDPKWKQEQQELISRLK", "folding stability dG": 1.07}, {"variant": "HERALMVNRLQKLTRMLRVHPDPKWKQEQQELIWRLK", "folding stability dG": 0.902}, {"variant": "HERALMVNRLQKLTRMLRVHPDPKWKQEQQELIHRLK", "folding stability dG": 1.11}, {"variant": "HERALMVNRLQKLTEMLRVHPDPKWKQEQQELIKRLK", "folding stability dG": 1.42}, {"variant": "HERALMVNRLQKLTNMLRVHPDPKWKQEQQELIKRLK", "folding stability dG": 1}, {"variant": "HDRALMVNRLQKLTRMLRVHPDPKWKQEQQELIKRLK", "folding stability dG": 1.16}, {"variant": "HNRALMVNRLQKLTRMLRVHPDPKWKQEQQELIKRLK", "folding stability dG": 1.22}, {"variant": "HSRALMVNRLQKLTRMLRVHPDPKWKQEQQELIKRLK", "folding stability dG": 1.09}, {"variant": "HARALMVNRLQKLTRMLRVHPDPKWKQEQQELIKRLK", "folding stability dG": 1.14}, {"variant": "HKRALMVNRLQKLTRMLRVHPDPKWKQEQQELIKRLK", "folding stability dG": 1.15}, {"variant": "HERALMVNRLQKLTRMLRVHPDAKWKQEQQELIKRLK", "folding stability dG": 1.03}, {"variant": "HERALMVNRLQKLTRMLRVHPDDKWKQEQQELIKRLK", "folding stability dG": 0.676}, {"variant": "HERALMVNRLQKLTRMLRVHPDQKWKQEQQELIKRLK", "folding stability dG": 0.666}, {"variant": "HERALMVNRLQKLTRMLRVHPDYKWKQEQQELIKRLK", "folding stability dG": 0.554}, {"variant": "HERALMCNRLQKLTRMLRVHPDPKWKQEQQELIKRLK", "folding stability dG": 1.96}, {"variant": "HERALMVNRLQKLTRMLRVMPDPKWKQEQQELIKRLK", "folding stability dG": 1.06}, {"variant": "HERALMVNRLQKLTRMLRVEPDPKWKQEQQELIKRLK", "folding stability dG": 0.232}, {"variant": "HERALDVNRLQKLTRMLRVHPDPKWKQEQQELIKRLK", "folding stability dG": 0.383}, {"variant": "HERALTVNRLQKLTRMLRVHPDPKWKQEQQELIKRLK", "folding stability dG": 0.188}, {"variant": "HERALEVNRLQKLTRMLRVHPDPKWKQEQQELIKRLK", "folding stability dG": 0.023}, {"variant": "HERALMVNRLQKLTRMLRVHPDPKWKQEQQMLIKRLK", "folding stability dG": 1.45}, {"variant": "HERALMVNRLQKLTRMLRVHPDPKWKQEQQFLIKRLK", "folding stability dG": 1.01}, {"variant": "HERALMVNRLQKLTRMLRVHPDPKWKQEQQRLIKRLK", "folding stability dG": 1.15}, {"variant": "HERALMVNRLQKLTRMLRVHPDPKWKQEQQILIKRLK", "folding stability dG": 1.14}, {"variant": "HERALMVNRLQKLTRMLRVHPDPKWKQEQQSLIKRLK", "folding stability dG": 0.996}, {"variant": "HERALMVNRLDKLTRMLRVHPDPKWKQEQQELIKRLK", "folding stability dG": 0.958}, {"variant": "HERALMVNRLGKLTRMLRVHPDPKWKQEQQELIKRLK", "folding stability dG": 0.69}, {"variant": "HERALMVNRLTKLTRMLRVHPDPKWKQEQQELIKRLK", "folding stability dG": 1.09}, {"variant": "HERALMVNRLFKLTRMLRVHPDPKWKQEQQELIKRLK", "folding stability dG": 1.23}, {"variant": "HERALMVNRLHKLTRMLRVHPDPKWKQEQQELIKRLK", "folding stability dG": 1.38}, {"variant": "HERALMVNRLNKLTRMLRVHPDPKWKQEQQELIKRLK", "folding stability dG": 1.34}]}]}
